From the RNAGym collection of RNA variant scans (doi:10.1073/pnas.2313332121)

B1: TPR t1 (parent)
chain: GACCAAUCUGCCCUCAGAGCUCGAGAACAUCUUCGGAUGCAGAGGAGGCAGGCUUCGGUGGCGCGAUAGCGCCAACGUCCUCAACCUCCAAUGCAUCCCACCACAUGAUGAUGCCUGAAGAGCCUUGGUUUUUUG

Variants of: B1
Test: polymerase ribozyme fitness, log enrichment relative to wild type (log ratio); higher = more active; in vitro selection for triplet polymerase activity
Procedure, shortened: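 Only genotypes with ≥10 input reads and ≥1 read per output were kept after Illumina sequencing of input and output libraries. These libraries were PCR-built, transcribed mutants of each subunit of a heterodimeric triplet polymerase ribozyme, each put through one triplicate in vitro selection round with frozen incubation at −7 °C, gel excision of extended constructs, streptavidin-bead capture and RT-PCR. Fitness is a logarithmic ratio of genotype enrichment to wild-type enrichment, from inverse-variance-weighted replicate averages, with the logarithm in base 2.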

Variant | polymerase ribozyme fitness (log ratio)
C72G A91C A95C A121G G128C U133G | -3.31
G19U G47U C49G C70U C86U U87C U109A C115U | -6.81
C15G U38C C124G | 0.313
U21A A43U C72U U129A | -3.56
C20G G135U | -4.02
C70U C99A A121G | -5.54
C49U G57C | -0.696
G36U C56G C123G | -5.15
C49A C73A | 0.508
G69U U109C | -0.222
C40U G61U G71A C99U G120A | -6.74
A119C C123G | -1.25
G48U U59G C80A G120U C123A | -4.73
G48A U54A | -0.741
C15U U96A | -1.57
G42C G48C C79A | -6.14
G93C G135A | -1.71
C20U G52U C72U | -3.02
A43C G48A C88U | -1.82
C3U G44U G45U G63U C88A | -2.78
G69U G71U G117A | -2.19
C49G C62G A75G C79U | -3.47
G47U G110U U134A | -2.33
C4U C115A | -1.18

Variant | polymerase ribozyme fitness (log ratio)
U9G A18U C56A U87G | -2.1
A50C U92A | -3.05
C11U C13A C22U U55G | -4.69
C88G C115G | -3.51
A90C C102U A111G | -4.24
C15U C70G C97U | -3.09
C13A C86U C124G | 1.07
A41G G45U C62A U78A U112G | -5.01
A41U C101U | -1.85
C56A A105C | -3.61
A6U A29U A66C C115G G117U | -6.19
U9A C12U G61C | -1.89
U78C C97U A103U C123G | -4.59
G57A G93C U130G | -3.23
C22G A50G | -3.5
C8G A46G C72U G110A | -0.393
A16U C40U C73G | -2.11
G45A C86A | -1.9
C13U C70G G122A | -2.19
U78A G110A | -1.32
C72U G93U C115U | -2.06
C12A C124A | 1.83
G60A C101A | -1.57
U78C C114U | -2.28

Variant | polymerase ribozyme fitness (log ratio)
C11G U21A C72G G110A | -3.29
A111U G120U | -4.5
U7G G61A | 0.0552
A2G C62U U78A A103C | -5.9
G48A C53G U55C C56A | -0.815
G42U C94U G113A | -2.64
C3G G128U | -1.24
C3A C62G | -2.38
C12G G71A | 0.0302
G45U G47U C53A G57A G58U C86A | -2.17
C12G G47C | -1.34
U21A A43U | -1.83
A43C C73A U81G C86U | -6.91
C28G A37G G48A C104U C123A | -2.85
A24G G61A A84U C85A | -2.08
C28U C101U G120U | -3.5
C3A G51C G69U | -2.31
C49U C72G C97U U106A | -0.73
G10U C40A C76G A83U C101A | -3.85
A43U C62G U112G G113C G122U | -6.69
U9G A16U U59C U81A C94A | -1.92
U14C C70G C82U U106A | -3.34
A26C G36A G69U G110A | -6.98
G42A C82A A91C C115G | -4.43

Variant | polymerase ribozyme fitness (log ratio)
C53A C72U | -0.465
C85G C123U | -0.244
C70A U126G | -3.42
U9A G58C A66G C85U | -0.571
C62U U87A | 0.539
C4U G17A | -2.72
G48U U54C | -1.22
C11G A37C C53U | 0.228
G60A U87G C101U | 0.254
U87G C115U | -0.742
C40G A46U | -2.96
C15U G44C A50C G61U U96C C104U | -2.29
C28G C64U U81A G93U C101U U112G | -5.16
A2U C13U | -1.36
C3U C89A | -2.23
U7A G17U | -1.25
C13U U112G | 1.14
A43C U87G | -2.73
U78C C97G C104A | -4.78
C8G A27U G47C | -3.02
C8A G60U C104G C124U | -5.09
C4U U7A G69A | -2.49
U9G C11G C40U | -4.28
U54A C70G C115U | -5.02

Variant | polymerase ribozyme fitness (log ratio)
A75U G113A G127C | -2.56
C102U G120A | -1.2
C13A U38G G58U | -2.03
A27C C86A | -4.06
C11U C13G A24G G47C C49A C88G C94U A108U C114U | -6.99
C11U G19A C49U C56U A66U C114U | -2.83
C20A U131G | -2.8
G60A G128U | -1.57
C88G U112A | 1.18
A29U G127U | -3.66
A103U G120A C123U | -4.53
C70U C86G | -1.54
C12A C40U | -1.32
C13A A50G C62A | -3.49
U30A G71U | -4.91
A37C G113C | -2.44
C22G A37U C88U | -4.47
C12A A43C G61U | -0.92
C12U U130A | -0.0283
A46C C79G | -2.93
U38C G63U G77C U131G | -3.41
C102A U112A C115A U116G C124G U133C | -3.77
G35A | -3.65
A2U A50C C56U G57U A91U C124G G127C G128C | -4.54

Variant | polymerase ribozyme fitness (log ratio)
C8A C15A A41C C49A G58U G63U U131A | -3.62
C11A C53U U129A | -2.66
G17U C89G | -2.98
U9C U55G G69A | -1.8
U54G G71A | -4.72
C3U U109G G110A | -4.81
U33G G61U | -4.97
C49G G77U A95G | -1.23
G52A G60A C79A C115A U132A | -0.536
U32C C53U C56A A118U | 0.16
A26G A84G C94A A95U | -4.63
G47A C72U A121C U129A | 0.0942
C12U C70U C94U | 0.056
A6U C34G C123U | -5.18
C22A G60U | -4.21
G57U C62A U125A | -4.41
C12U | 0.39
A50G C53G G61A C64U U116A G117A | -4.58
C20G C49G | -5.11
A16U G61U G135U | -1.98
A5C C15A C62G A100U G117U | -4.14
U9C C73U | 0.362
A27C A29U C56U U106A G122A C123G | -1.35
G47A C49A G60C G93A G113C G127U | -6.14

Variant | polymerase ribozyme fitness (log ratio)
U38A C62G | -3.68
G69A U130G | -2.69
A6C C40A C70G | -5.35
A27U C114U | -4.39
A2U C72U C101G C124A | -2.06
G48A G69C C123U | -0.587
U54G G69C | -6.2
G61C C123U | -0.994
A18C G69U C115U | -1.28
A6G C13U C98U A119U | -2.09
U32C U78C A100C | -2.28
C86U C104U | -0.296
C73U C104A | -1.22
A43G C70U | -2.76
G69A C79U C80U | -6.55
U14G C76A | -2.76
C4U C22G A43U G48U C49U C97U | -4.83
U33A C89A G117U | -5.96
C12G C62G C72G U87A G113U U125G | -5.49
C8A U33A G42U C73U U112A C123A | -5.52
C53G C70G U81C C94G A121C | -7.53
A29U C40A U109C U130G | -6.92
C15U C53U G69U | -0.102
